Measurements: the supplement of paper PMC10567573

B1: CDC34 (parent)
chain: GGYFKARLKFPIDYPYSPPAFRFL

Variants of: B1
Test: protein stability index of a GFP-peptide fusion (GPS, HEK-293T) (PSI 1-6); higher = more stable
Conditions: c terminus: a fixed tail appended
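Further: lentivirally expressed fusions sorted by FACS into six bins by GFP to DsRed ratio, PSI derived from sequencing read proportions per bin multiplied by bin number.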

Protein stability index of substitutions, site by site:
D13: V 3.06, I 3.04, S 2.34, A 3.56, L 3.38, H 3.16, K 3.03, G 4.23, E 1.97, M 1.68, N 2.64, F 3.1, C 2.51, R 3.03, T 2.82, Q 2.73, W 2.7
F21: K 2.16, N 1.88, D 2.34, S 1.54, Y 1.53, T 2.67, G 3.19, V 3.33, C 2.55, W 3.02, R 2.82, A 2.57, I 2.48, Q 3.14, M 2.15, E 1.65
I12: M 1.39, R 1.7, S 3.06, V 1.8, N 2.22, W 2.12, Y 3.17
P19: K 2.99, M 3.23, C 3.03, E 2.21, L 3.41, T 3.29, F 2.96, D 2.21, I 2.56, A 2.29, R 3.69, W 3.02, H 2.67, Q 2.55, S 2.64, Y 4.32, N 3.27, V 2.35
A20: Q 2.41, L 2.52, F 3.14, M 3.57, G 2.29, R 3.03, H 3.05, S 2.54, W 2.98, E 3.68, D 2.18, T 2.95, K 3.03, C 1.71, V 2.96, I 3.02
S17: D 2.77, W 2.82, K 3.04, M 2.9, R 3.12, V 4.24, I 3.04, E 3.71, N 3.85, Y 2.44, G 2.85, F 2.93, H 3.25, Q 2.58
R22: V 4.1, A 4.99, L 2.97, Q 2.65, I 2.74, N 2.73, T 2.52, G 2.78, H 2.87, S 2.8, D 3.74, P 2.62, E 2.58, K 2.74, F 3.63, C 4.57, M 3
Y16: L 2.18, F 2.86, D 1.57, A 2.38, V 3.55, M 1.99, G 2.83, W 2.43, C 2.73, I 3.09, T 2.81, S 2.6, N 2.71, K 3.31, H 3.2, E 2.23, R 2.6
P18: G 2.4, E 2.34, D 2.34, W 2.38, Q 3.79, L 2.54, F 2.42, M 2.19, K 3.31, N 2.51, S 3.15, A 2.96, C 3.4, H 2.33, Y 2.48
Y14: R 2.09, D 3.03, V 2.7, N 2.47, S 4.54, K 2.75, G 1.88, I 2.16, M 2.8, E 2.06, Q 1.82, C 2.57, L 2.75
P15: F 3.14, N 2.31, L 2.92, G 2.62, Y 2.56, Q 2.06, S 3.76, H 3.92, I 2.75, D 3.29, M 3.04, A 3.19, T 2.51, C 3.05, V 2.21, W 2.9, E 2.84
